Data on two molecules can be found in patent publication US20110091994A1, “Methods for Screening Compounds for Treating and/or Preventing an Hepatitis C Virus Infection” (priority 2008, published 2011).

The subject of assay [1] is HCV ORFs (Gal4-DB fusions). The class given is binding, HCV genotype 1b, isolate con1. The following applies: human protein listed by gene symbol; the value names the HCV protein it interacts with.
In assay [2] the target is T1, HCV ORFs (Gal4-DB fusions) (Hepatitis C virus genotype 1b, UniProt Q9WMX2).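 Further: yeast two-hybrid screens using HCV genotype 1b proteins fused to Gal4-DB as baits against prey cDNA libraries from human spleen and foetal brain, IMAP1 via transformation and IMAP2 via mating.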
T1 construct: expressed in transfected cells; host or cells: Saccharomyces cerevisiae MAV203 (IMAP1) / AH109 (IMAP2)
T1 sequence (Q9WMX2 1027-1657): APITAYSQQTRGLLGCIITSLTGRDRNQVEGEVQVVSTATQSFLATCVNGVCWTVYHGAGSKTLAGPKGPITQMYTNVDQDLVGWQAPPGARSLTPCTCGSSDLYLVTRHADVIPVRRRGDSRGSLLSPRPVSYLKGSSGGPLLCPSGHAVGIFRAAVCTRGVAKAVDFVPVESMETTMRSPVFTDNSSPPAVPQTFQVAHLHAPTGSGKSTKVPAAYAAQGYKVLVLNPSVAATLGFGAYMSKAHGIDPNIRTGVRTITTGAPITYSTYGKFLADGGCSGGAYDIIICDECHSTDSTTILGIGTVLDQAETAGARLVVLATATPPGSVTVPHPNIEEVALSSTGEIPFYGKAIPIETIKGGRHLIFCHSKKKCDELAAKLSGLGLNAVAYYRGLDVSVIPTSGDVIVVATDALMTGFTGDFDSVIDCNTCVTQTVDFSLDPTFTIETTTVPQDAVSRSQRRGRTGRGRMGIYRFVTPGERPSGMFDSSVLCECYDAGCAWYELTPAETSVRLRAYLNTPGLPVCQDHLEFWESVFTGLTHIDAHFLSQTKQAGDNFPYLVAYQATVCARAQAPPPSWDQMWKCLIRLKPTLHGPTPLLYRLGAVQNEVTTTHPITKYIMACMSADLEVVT
The class given is binding, HCV genotype 1b, isolate con1. The following applies: HCV protein NS3 as bait; human protein as prey.

For the next assay, the target named is T2, HCV proteins (Hepatitis C virus genotype 1b, UniProt Q9WMX2).
T2 construct: expressed in transfected cells
T2 sequence (Q9WMX2 1027-1657): as above
The assay is described as follows: Validation by Y2H pairwise matrices.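 Further: yeast two-hybrid pairwise tests of interactions first found in Y2H screens of HCV bait proteins against human cDNA libraries.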 The class given is binding. The following applies: validation of interaction with HCV protein NS3.

B1: KIF7 (protein, UniProt Q2M1P5 1-1343, looked up)
Kinesin-like protein KIF7: MGLEAQRLPGAEEAPVRVALRVRPLLPKELLHGHQSCLQVEPGLGRVTLGRDRHFGFHVVLAEDAGQEAVYQACVQPLLEAFFEGFNATVFAYGQTGSGKTYTMGEASVASLLEDEQGIVPRAMAEAFKLIDENDLLDCLVHVSYLEVYKEEFRDLLEVGTASRDIQLREDERGNVVLCGVKEVDVEGLDEVLSLLEMGNAARHTGATHLNHLSSRSHTVFTVTLEQRGRAPSRLPRPAPGQLLVSKFHFVDLAGSERVLKTGSTGERLKESIQINSSLLALGNVISALGDPQRRGSHIPYRDSKITRILKDSLGGNAKTVMIACVSPSSSDFDETLNTLNYASRAQNIRNRATVNWRPEAERPPEETASGARGPPRHRSETRIIHRGRRAPGPATASAAAAMRLGAECARYRACTDAAYSLLRELQAEPGLPGAAARKVRDWLCAVEGERSALSSASGPDSGIESASVEDQAAQGAGGRKEDEGAQQLLTLQNQVARLEEENRDFLAALEDAMEQYKLQSDRLREQQEEMVELRLRLELVRPGWGGPRLLNGLPPGSFVPRPHTAPLGGAHAHVLGMVPPACLPGDEVGSEQRGEQVTNGREAGAELLTEVNRLGSGSSAASEEEEEEEEPPRRTLHLRRNRISNCSQRAGARPGSLPERKGPELCLEELDAAIPGSRAVGGSKARVQARQVPPATASEWRLAQAQQKIRELAINIRMKEELIGELVRTGKAAQALNRQHSQRIRELEQEAEQVRAELSEGQRQLRELEGKELQDAGERSRLQEFRRRVAAAQSQVQVLKEKKQATERLVSLSAQSEKRLQELERNVQLMRQQQGQLQRRLREETEQKRRLEAEMSKRQHRVKELELKHEQQQKILKIKTEEIAAFQRKRRSGSNGSVVSLEQQQKIEEQKKWLDQEMEKVLQQRRALEELGEELHKREAILAKKEALMQEKTGLESKRLRSSQALNEDIVRVSSRLEHLEKELSEKSGQLRQGSAQSQQQIRGEIDSLRQEKDSLLKQRLEIDGKLRQGSLLSPEEERTLFQLDEAIEALDAAIEYKNEAITCRQRVLRASASLLSQCEMNLMAKLSYLSSSETRALLCKYFDKVVTLREEQHQQQIAFSELEMQLEEQQRLVYWLEVALERQRLEMDRQLTLQQKEHEQNMQLLLQQSRDHLGEGLADSRRQYEARIQALEKELGRYMWINQELKQKLGGVNAVGHSRGGEKRSLCSEGRQAPGNEDELHLAPELLWLSPLTEGAPRTREETRDLVHAPLPLTWKRSSLCGEEQGSPEELRQREAAEPLVGRVLPVGEAGLPWNFGPLSKPRRELRRASPGMIDVRKNPL
B1: the “Interaction with viral protein” value in assay [1] is “NS3”. For the same molecule, the “IMAP Y2H IMAP1 (number of IST)” value in assay [2] came to 1. For the same molecule, the Y2H matrices entry with HCV proteins was “+”.

B2: L3MBTL3 (protein, UniProt Q96JM7 1-780, looked up)
Lethal(3)malignant brain …: MTESASSTSGQEFDVFSVMDWKDGVGTLPGSDLKFRVNEFGALEVITDENEMENVKKATATTTWMVPTAQEAPTSPPSSRPVFPPAYWTSPPGCPTVFSEKTGMPFRLKDPVKVEGLQFCENCCQYGNVDECLSGGNYCSQNCARHIKDKDQKEERDVEEDNEEEDPKCSRKKKPKLSLKADTKEDGEERDDEMENKQDVRILRGSQRARRKRRGDSAVLKQGLPPKGKKAWCWASYLEEEKAVAVPAKLFKEHQSFPYNKNGFKVGMKLEGVDPEHQSVYCVLTVAEVCGYRIKLHFDGYSDCYDFWVNADALDIHPVGWCEKTGHKLHPPKGYKEEEFNWQTYLKTCKAQAAPKSLFENQNITVIPSGFRVGMKLEAVDKKNPSFICVATVTDMVDNRFLVHFDNWDESYDYWCEASSPHIHPVGWCKEHRRTLITPPGYPNVKHFSWDKYLEETNSLPAPARAFKVKPPHGFQKKMKLEVVDKRNPMFIRVATVADTDDHRVKVHFDGWNNCYDYWIDADSPDIHPVGWCSKTGHPLQPPLSPLELMEASEHGGCSTPGCKGIGHFKRARHLGPHSAANCPYSEINLNKDRIFPDRLSGEMPPASPSFPRNKRTDANESSSSPEIRDQHADDVKEDFEERTESEMRTSHEARGAREEPTVQQAQRRSAVFLSFKSPIPCLPLRWEQQSKLLPTVAGIPASKVSKWSTDEVSEFIQSLPGCEEHGKVFKDEQIDGEAFLLMTQTDIVKIMSIKLGPALKIFNSILMFKAAEKNSHNEL
As to B2, the “Interaction with viral protein” value in assay [1] is recorded as “NS3”. Further, in assay [2], the “IMAP Y2H IMAP1 (number of IST)” value amounted to 4 and the “IMAP Y2H IMAP2 (number of IST)” value turned out to be 8. In addition, the Y2H matrices entry with HCV proteins is recorded as “+”.
